Blank lines part the entries; values can stand above or below the molecule they belong to. Where no end group is shown, it is not given here.
How the values were obtained:
[1] = test system: biotinylated 7E11-9.5 mimetope peptide; experiment: Dot blot: spotted 7E11-C5 abtides probed with biotinylated mimetope peptide; assay type: binding; details: 1 μL of 1 mg/mL abtide spotted on nitrocellulose; 0.1 mg/mL mimetope; FIG. 4
Protocol: (§1) In some cases, these abtides were used in a dot blot experiment. In those cases, 1 μL of a 1 mg/mL solution of the 38-residue abtides was spotted onto nitrocellulose (0.2 μm or 0.45 μm, Schleicher & Schuell, Keene, NH) strips or circles. After drying (about 1/2 hour), the nitrocellulose was blocked for 1 hour in a solution of 1% BSA in PBS. The nitrocellulose was then allowed to incubate in approximately 5 mL of a solution of 0.1 mg/mL of a biotinylated 7E11-9.5 mimetope peptide (biotin-LYANPGMYSRLHSPA). This mimetope peptide was one of those described in Section 6.1.1 above that were synthesized based upon the nine peptides that were identified in the screening of Section 6.1.1 above. After an hour, the nitrocellulose was washed approximately 5 times with a solution of 1% BSA in PBS. A 1:2000 dilution of Extravidin-Alkaline Phosphatase (4,250 units/mL) (Sigma, St. Louis, Mo.) in PBS was then added and allowed to incubate for 1 hour, after which the nitrocellulose was again washed extensively. Finally, a solution of 5-bromo-4-chloro-3-indolyl phosphate (0.15 mg/mL) and nitro blue tetrazolium (0.3 mg/mL) (Sigma, St Louis, Mo.) (BCIP/NBT) was added as an enzyme substrate. Color was allowed to develop […].
(§2) In FIG. 4, the 7E11-C5 abtides known as clone 14, clone 17, clone 15, clone 16, and clone 13 were tested for their ability to bind the biotinylated 7E11-9.5 mimetope peptide. Also tested, as a positive control, was the monoclonal antibody 7E11-C5. 7E11-C5 was spotted onto the region marked 351 in FIG. 4.

PEM peptide [2] = target: T1, PEM peptide (human); experiment: phage panning on PEM peptide, DC43 library, acid eluted
T1 peptide: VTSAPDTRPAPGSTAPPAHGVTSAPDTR
Protocol: (§3) A peptide comprising this sequence was synthesized and used to isolate abtides from TSAR peptide libraries by methods analogous to those described above. In these experiments, the specific TSAR libraries used were R26, D38 and DC43. See FIGS. 10-12 for description of these libraries. Phage bound to PEM were eluted by either standard acid elution methods, stringent acid elution methods where phage were incubated with the PEM peptide for only 10 minutes prior to washing and elution, or were eluted using excess PEM peptide. Phage from each library were isolated that express peptides capable of binding to PEM.

PEM peptide [3] = target: T1, PEM peptide; experiment: phage panning on PEM peptide, D38 library, eluted with excess PEM peptide
Protocol: as §3

[4] = target: T2, biotinylated 7E11-9.5 mimetope peptide (not fully specified (N-terminus); printed as Biotin-LYANPGMYSRLHSPA-NH2); experiment: dot blot, synthetic abtide spotted on nitrocellulose, biotinylated mimetope in solution
T2 peptide: LYANPGMYSRLHSPA-NH2
Protocol: as §1, with “(biotin-[…]).” for “(biotin-LYANPGMYSRLHSPA).”
as §2

[5] = target: T3, mimetope peptide 7E11-9.5 (not fully specified); experiment: phage panning of TSAR-9 library on plate-bound 7E11-9.5 peptide
T3 peptide: LYANPGMYSRLHSPA
Protocol: Next, the mimetope peptide was used to isolate abtides from a peptide library. Fifty to one hundred microliters of the solution of this peptide was used to coat the wells of a 96-well plate, the wells were blocked with 0.5% BSA in PBS, and the wells were used for screening. An aliquot of the TSAR-9 random phage library (containing approximately 3×10¹⁰ phage particles) was used as in the initial screening, and 4 rounds of screening were performed. After the first two rounds, the phage were amplified. Two more rounds of screening were then performed. By this procedure, phage from the TSAR-9 library that expressed peptides capable of binding to the 7E11-9.5 mimetope peptide were identified and isolated. The peptides containing the binding domains of these phage are abtides and were discovered to mimic the binding specificities of monoclonal antibody 7E11-C5. These abtides are termed “7E11-C5 abtides.”

Molecule: DLSRNLDFGRFLLYNAYVPGFTPTFISLTAEHLSSPKG [clone 17]
binding of biotinylated 7E11-9.5 mimetope peptide in dot blot [1]: bound the mimetope

B1: MA-21 (peptide)
peptide: LPRPFDDASWKLRAVKESPDGCGFGSPLLFPPYSGLPTFSSCD
notes: acid eluted
binding result (PEM peptide [2]): binds

B4: 7E11-C5 abtide clone 17 (peptide)
peptide: DLSRNLDFGRFLLYNAYVPGFTPTFISLTAEHLSSPKG
notes: tested afterwards as synthetic 38-residue peptide
binding result [4]: binds | binding result [5]: binds

B5: MP-20 (peptide)
peptide: IDWNWLERGQHNRGYLHSFPDAKSQPTRGPRVAPNGND
notes: eluted with excess PEM peptide
binding result (PEM peptide [3]): binds

B6: MA-8 (peptide)
peptide: EEKQGGRWSTMMPRPWCHEGGCGFLYYDAMTKPKTPPIMRTAA
notes: acid eluted
binding result (PEM peptide [2]): binds

B7: 7E11-C5 abtide clone 14 (peptide)
peptide: GIINANDPLPFWFMSPYTPGPAPIDINASRALVSNESG
notes: tested afterwards as synthetic 38-residue peptide (dot blot, ELISA, sandwich assay)
binding result [4]: binds | binding result [5]: binds

The next lines start with the values.

binding of biotinylated 7E11-9.5 mimetope peptide in dot blot [1]: bound the mimetope
Molecule: CGRAYCLSGNYNIFGALFPGVSTPYADVGHDDAQSWRR [clone 15]

binding result (PEM peptide [3]): binds
B2: MP-30 (peptide)
peptide: GRGSDMREHWPWSMPLILDQHANDPSPRAQSHYYSHPF
notes: as for B5

binding result [4]: binds | binding result [5]: binds
B3: 7E11-C5 abtide clone 15 (peptide)
peptide: CGRAYCLSGNYNIFGALFPGVSTPYADVGHDDAQSWRR
notes: as for B4

binding result (PEM peptide [2]): binds
B8: V22 (peptide)
peptide: GSFESARGVTCIGNHSIGAHGCGPLRSYASFNRGSGRRH
notes: acid eluted

Source: patent US20040229289A1, “Antigen binding peptides (abtides) from peptide libraries” (Cytogen Corporation, priority 1994, published 2004)
